Laboratory results: a protein production outcome set (Wang et al. 2014)

Test: label from the status in PepcDB records

| Sequence | protein production |
| --- | --- |
| MVKDKNDVGPKTVAILGAGGKMGARITRKIHDSAHHLAAIEIAPEGRDRLQGMGIPLTDGDGWIDEADVVVLALPDNIIEKVAEDIVPRVRPGTIVLILDAAAPYAGVMPERADITYFIGHPCHPPLFNDETDPAARTDYHGGIAKQAIVCALMQGPEEHYAIGADICETMWSPVTRTHRVTTEQLAILEPGLSEMVAMPFVETMVHAVDECADRYGIDRQAALDFMIGHLNVEIAMWFGYSPKVPSDAALRLMEFAKDIVVKEDWREALNPAKVKQAAELIAGK | not failed |
| MSNHEEKKQHVALSSVAASLLLTAMKLVVGLMTGSIGILSEAAHSAIDFGAAALTWFAVRISDKPADKKHHYGHTKIESVSALIETGLLILTSVWIIYEAVTRLLSGTTEIEVTWYAIAVIIISIIVDISRASALKKVAKETKSQALEADALHFTSDIVSSAVVLAGLGFVALGMHWADAVAGIFVAVLVGKAAWELGRKTIDVLIDTAPEGLSEQIEEIVVNAPGVIGINKMRIKPAGGPFVFIDLTISVSRTLPQEKVVAICAGVEQRLKAALPDSDITVNARPVVLDSETVTERIHTIGLNHGLHAHNILTSLSGDHKQITFDVEVDSRLTIRQAHDAVTELENELHREFNEEIDLCIHLDPINSEERNVQPADPENEARITALIRQAASTIPGILNVHALKIHVLSYNKLCITLHCGFDDNTVLADVHPLTSRLECLIYRDIPETSRIIVHAEPVNAGD | failed |
| MDTNNFTVKVEYVDADGAEIAPSDILTDYHYVSTPKDIPGYKLREIPHNATGNITDTGIIVRYIYLEHHHHHH | not failed |
| MTVRSRFFTEAEGKAVGVENAAAKGDVLLVCEHASATIPQKYGTLGLSADVLSSHAAWDPGALAVARLLSEKFHATLVYQRFSRLVYDCNRPPESPSAMPVKSEIYDIPGNFDLDEAERFARTSALYVPFHDRVSEIIAERQAAGRKVVVVTIHSFTPVYHGRFREVEIGILHDNDSRLADAMLAGAEGASLTVRRNDPYGPEDGVTHTLRLHALPDGLLNVMIEIRNDLIANEGEQAAIAGFLHELMGKALSSIEE | not failed |
| MDRGEQGLLRTDPVPEEGEDVAATISATETLSEEEQEELRRELAKVEEEIQTLSQVLAAKEKHLAEIKRKLGINSLQELKQNIAKGWQDVTATSAYKKTSETLSQAGQKASAAFSSVGSVITKKLEDVKNSPTFKSFEEKVENLKSKVGGTKPAGGDFGEVLNSAANASATTTEPLPEKTQESL | failed |
| MAQKLEAKGGEMGDVWDDGVYENVRKVYVGQAQYGIAFVKFEYVNGSQVVVGDEHGKKTELGVEEFEIDADDYIVYVEGYREKVNDMTSEMITFLSIKTFKGKTSHPIEKRPGVKFVLHGGKIVGFHGRSTDVLHSLGAYVSLSSTIKLLGKWIKVEQKGEGPGLRCSHGIAQVGNKIYSFGGEFTPNQPIDKHLYVFDLETRTWSISPATGDVPHLSCLGVRMVSVGSTLYVFGGRDASRQYNGFYSFDTTTNEWKLLTPVEEGPTPRSFHSMAADEENVYVFGGVSATARLNTLDSYNIVDKKWFHCSTPGDSLTARGGAGLEVVQGKVWVVYGFNGCEVDDVHYYDPVQDKWTQVETFGVRPSERSVFASAAIGKHIVIFGGEIAMDPLAHVGPGQLTDGTFALDTETLQWERLDKFGGEEETPSSRGWTASTTATIDGKKGLVMHGGKAPTNDRFDDLFFYGIDSA | not failed |
| MQLIRGFHNLANYDALKKGCVLTIGNFDGVHIGHQNILARLCDQSLAIGLPSVVMLFEPQPREFFAKNSQNQTASALSNAVPARLMRLRDKLKYLAEMGVDFVLCVNFNQKFAKYSAEDFITELLVKKLKVRYLSVGDDFRFGIERRGNFEMLRNAGLTHRFAVEESHTHRFDTLRISSSLIRQALQQNDLALVENLLGKPYSIRGRVAHGNKLGRTIGFPTANIMLNRLVTPIQGVFIVEVQTIYGRFNGIANVGNRPTINGTKPLLEVHIFDFNNAIYHQIIEVIFIKKIRDELKFASFTLLKEQIEKDCQQAVEFFNQLPKTK | failed |
| MATPQDKLHTVRLFGTVAADGLTMLDGAPGVRFRLEDKDNTSKTVWVLYKGAVPDTFKPGVEVIIEGGLAPGEDTFKARTLMTKCPLEHHHHHH | not failed |
| MALLCYNRGCGQRFDPETNSDDACTYHPGVPVFHDALKGWSCCKRRTTDFSDFLSIVGCTKGRHNSEKPPEPVKPEVKTTEKKELCELKPKFQEHIIQAPKPVEAIKRPSPDEPMTNLELKISASLKQALDKLKLSSGNEENKKEEDNDEIKIGTSCKNGGCSKTYQGLESLEEVCVYHSGVPIFHEGMKYWSCCRRKTSDFNTFLAQEGCTKGKHMWTKKDAGKKVVPCRHDLHQTGGEVTISVYAKNSLPELSRVEANSTLLNVIIVFEGEKEFDQNVKLWGVIDVKRSYVTMTATKIEITMRKAEPMQWASLELPAAKKQEKQKDDTTD | not failed |
| MNARLGVSLKILSALCATLMLACVKGLNGAIPTGEVIFFRSFVALFPLLLWLKVQGNILQRIKTKNIFGHLIRGFSGTGGMYFNYLALVYISLADATAISYAAPLFTVLMAAILLKENVHFSRWLAVIVGFCGILIMLSAKLTISNGLFSSGFALDGTALGATFALLAAACAATSNIQIRFLNGVESPGAIVFYFSLMTTLIGLFTLVFGWKMPHGWQWLLLIGCGLFGGIAQILVTLSLRYADASLLAPFDYTTLVWSMVIGYLFLDNLPEYATLMGASVVALAGIFTIWCNRRQRKGHIVRSS | failed |
| MEELLDILREFRDSRGWLKYHTPKNLAVSISIEVAELLEIFQWTRSSDEEFEVLERRKGEVEEEIADVLIYLLFLCDVAEINPIEAVKRKMEKNERKYPKNRVHEF | not failed |
| MGIEMSLKDIINSNRPSESRQLACALTFCGGFIDAYTYIQRGHTLSAGQTGNVIFFSSALADHNIPGMINRASTFIAFSLGLLLVGLFHKYVKSHYWRVFCLFPILVICIVVGFLPKSVPNYYIVPAIAFGLAVQNASFSKIEGMGYNNVFTTGNLKKSVVAWSAFFFGEDKSKYTAAVNYMMLVISFGLGAIVSALLQKIWVLKTIWIAVIFLAIINCIYIIAIRKHKKLDLSGKNDA | failed |
| MMGSVELNLRETELCLGLPGGDTVAPVTGNKRGFSETVDLKLNLNNEPANKEGSTTHDVVTFDSKEKSACPKDPAKPPAKAQVVGWPPVRSYRKNVMVSCQKSSGGPEAAAFVKVSMDGAPYLRKIDLRMYKSYDELSNALSNMFSSFTMGKHGGEEGMIDFMNERKLMDLVNSWDYVPSYEDKDGDWMLVGDVPWPMFVDTCKRLRLMKGSDAIGLAPRAMEKCKSRA | failed |
| MQDQTEAVRFLSDPATHGGAPVERVETHGAFVFLAGSQAFKIKRAVRYDYMDLSTLALRHRMLARELELNRPAAPAIYRDLVAVTREPEGLALGGPGEPVEWVLRMWRFPAEDELSAVAERGALDDRLAARLGRSLAAYHRAAPVRSSDGAALVEAILDELGRVFAGMEDGLGAERIARFGTQARDMLARTKPLLRARSEAGRVRRGHGDLHLRNLVLIEGEPVPFDALEFDETLGTCDILYDLAFLLMDLDHRGLTRAAGIALAAWLFEMRGDEDGGLAALPLFLAVRAAIRGMVLVQTDAARGAPGHSDAEARGLLDEALRALSPPPPRLLAIGGVSGSGKTVLAAALAPRLGLPPGAIHLRSDLERKSRAGVPTDRRLGGAAYGEDARHAVYGQMLARAGAILAAGWPVILDATFLDPADRAAARALAAERGVPLEGLWLEAPPDLLVARVSTRRSDASDADEAVVRAQLARQPRAGDWRTLDTGRPPEEVAHSACRALGLD | failed |
| SQYKNISEKIVHIIQQEFDTDLTLESIAGRLHYNPNYLSSIFRKEMKISFSEYLSSYRHHIAKNWLTETTMSVKEISEKLKYKNPQNFIRSFKKLEGITPGKYRELKNHS | not failed |
| VVIQFYEERLTWHTGSGNGNGNTNSVNLGSSGGLGSVGGSGAGDDTAPGSVGTTGGGSNIDGGDEEDPEPASPIGSINQDENIKPDESSELDNGQPDADD | failed |
| MKIGFLGFGKSNRSLLKYLLNHQEAKFFVSEAKTLDGETKKFLEEHSVEYEEGGHTEKLLDCDVVYVSPGIKPDTSMIELLSSRGVKLSTELQFFLDNVDPKKVVGITGTDGKSTATALMYHVLSGRGFKTFLGGNFGTPAVEALEGEYDYYVLEMSSFQLFWSERPYLSNFLVLNISEDHLDWHSSFKEYVDSKLKPAFLQTEGDLFVYNKHIERLRNLEGVRSRKIPFWTDENFATEKELIVRGKKYTLPGNYPYQMRENILAVSVLYMEMFNELESFLELLRDFKPLPHRMEYLGQIDGRHFYNDSKATSTHAVLGALSNFDKVVLIMCGIGKKENYSLFVEKASPKLKHLIMFGEISKELAPFVGKIPHSIVENMEEAFEKAMEVSEKGDVILLSPGGASFDMYENYAKRGEHFREIFKRHGGDEV | failed |
| MDSFKVVLEGPAPWGFRLQGGKDFNVPLSISRLTPGGKAAQAGVAVGDWVLSIDGENAGSLTHIEAQNKIRACGERLSLGLSRAQPAQSKPQKALTPPADPPRYTFAPSASLNKTARPFGAPPPTDSALSQNGQLLRQLVPDASKQRLMENTEDWRPRPGTGQSRSFRILAHLTGTEFMQDPDEEFMKKSSQVPRTEAPAPASTIPQESWPGPTTPSPTSRPPWAVDPAFAERYAPDKTSTVLTRHSQPATPTPLQNRTSIVQAAAGGGTGGGSNNGKTPVCHQCHKIIRGRYLVALGHAYHPEEFVCSQCGKVLEEGGFFEEKGAIFCPSCYDVRYAPSCAKCKKKITGEIMHALKMTWHVPCFTCAACKTPIRNRAFYMEEGAPYCERDYEKMFGTKCRGCDFKIDAGDRFLEALGFSWHDTCFVCAICQINLEGKTFYSKKDKPLCKSHAFSHV | failed |
| MVWGKGLARRLYGLTGVVWSKYLDIDERGRLIVKLKGYKIDIAKLVSDKQLPGAHIRILPIIRYMMDQVYEAFMEAFRKFGYKGAFKPVYPLKSNSTPIVVDTIWRYGIKYSWGFNAGTYPEVKLISKYINEKPRLLVVDGIKDNKLLDLLSKMCDSWEIIVDIESMRDADLLSKYQDLNIGLRVKVTSKSSGLWSHSSGLDSKFGLLINTLDEMVEKHPWVPNRTVLLHVHAGSQITDKNRLEDIIRETIILYNNLVKTGFKNIRYIDFGGGLAYPYIEASNHVFSANYSLNEYAEILVKELVKSAENTPDIVFEGGRYIVAPHRITVTKIIDTRPYSTSDRGETSYPIVEEIKNTENIKELVYVSRKAREVITRLMLKFPINIESRRILEKLLTSINEAITSKAYEIIHRDNDKALEELIKTPNYVLEELVSPTRRFFASFSLFSHLPDTIIADQYFKIIPLQRLNEKPEVLGVISDLTCDSMGEYSSFITFLPNNIEYETEDLFTSLDHKLMFIPGKTLRLKGVPLHIPRKNEDYYIAFLDTGAYQDMLSMNHNLLNGYPEIIIDIINDNLKIIYENLESAENYPL | failed |
| MNFPTQTHAIDFDTAELQRLGFRNRPDAVLPPPSLPELVYQLGRQLQTSLEAERILTLFFQGVQRFLPLSGLVYRHIESDLHLRLGEMSSDSASFHLRHEGKCIGELEFQGAKPFDTRQLSDLESLLVCLVYPLLNALLYRIATQTALRDPLTSTGNRIAMDQGLAREIEISSRHKQPLSLLMLDIDHFKKVNDEYGHHTGDDVLKTVAQSLKAQLRNIDRVFRYGGEEFVVILSNTGATAAELIGERLRQAVRNLEFRELDPALTMTVSLGCSTLLPTETADSLLRRADNALYVAKREGRNRLAMAS | failed |
| MRVHPDRGRTNLPPFKLRSSRSTYKALKEKANGDALTNAGDRSIFVPDGICQGKAAERCQKTRQRGVRSVKNLIVKIAAAALLVLAPAIAQAAEGYSTANVNMRAGPSTRYPAVAVIPAGSSVEIRGCLSNVNWCDVEFYGGRGWVSGQYVQAVYEQRRVYVGPQYYRPLGIPMVTFSVGNYWDRYYRGRDFYRERDRWSRGPDYYYRDRDYRDRDYRREYRDRDYQVREYRDRDRDRRDDARREERRREVRRDDDNRSSDFRDLPQFRGGKADTYNHPDPRASPFVCRPGDPSCGD | failed |
| SDESDLPSAMPAVPAFGVEERNMVSGVLTLAERSIRSIMTPRTDVSWVNIDDDAATIRQQLTAAPHSFFPVCRGSLDEVVGIGRAKDLVADLITEGRVRRNRLRDPIIVHESIGILRLMDTLKRSRGQLVLVADEFGAIEGLVTPIDVFEAIAGEFPDEDELPDIVAESE | not failed |
